# Laboratory results from the DeepSol protein solubility set.
# Assay: soluble on expression in E. coli; label from the status in PepcDB or PDB records
row,Sequence,soluble on expression in E. coli
1,MAIIGIDLGTTNSLVATWSEDGATLIPNVLGEFLTPSVVSVDETGEILVGRIAKERLITHPQLTAATFKRFIGTEKKYELGTYTFSSEELSSFVIKSLKQDAEAYLNEEVTGAVISVPAYFNDTQRKSTKRAAEIAGLTVERLISEPTAAAIAYGLYQEESETKFLVFDLGGGTFDVSILELFEGIMDVKSIAGDNYLGGEDFTRSLMTFFLESHQLDPDSLDSKTLSLIYTQAERCKLTLCNESAATMNVVIQNQTYETSINRGEFEKIVTPLLLRLRYPIERALRDASLNPNDLDAVILIGGATRMPLVKSVISKMFGRMPYANINPDETVALGAAIQVALKERNKALEEVILTDVCPYSLGTSVVQEFGDGKSESGYFFPIIERNTPIPVSKVERLYTVKDKQQFITIDVYQGENRRVVNNLKLGELKIKIPPAPAGNESVDIRYTYDINGILEVEVISTSTGEKKRTIIQQNAGNLTDAEIEKRLLELRDIKIHPRDREENRLLLAKCERLYEELLGDERKKISILLQQFESVLTTQNDKKIKEASSILKEHIESMERWANR,not soluble
2,MAQIVRQSKFRHVFCKPVKHESCMSDIRVTEITWDSLFCDVNPKFIAFINRGAGGPFMVIPVNKIGRVDKDYPFVDAHKAPCLEVAWSPFNDNVIASCSEDTTCKVWVIPDRGLNRNLSEPAVELTGHQKRVNTIAWHPVANNVLLTAGGENVMFMWNVGTGEALLEISGHPDQIWSINFNFDGSQFVTTCKDKKIRILDSHTGEVVHEGMGHEGVKPQRAIFVKDGLILSTGFTKRSERLYALRAPEDLSTPIVEEELDTSNGVVFPFYDEDSGLVYLVGKGDCAIRYYEVNNDAPYVHYINTYTTNEPQRAVGFQSKRGMSSEENEINRIYKLTTKGVVDILQFFVPRKSDLFQHDLYPDTRSTIPALTAEEFMEGKNAAPNRQPVNAAAAAAAAKPKVQVAKKANILSTLAPTAAESVPTQSYSERPPSSQQPSPRPSASPRPRPVVDDDMGIVTMREAPPSRPASSRASRTEIPPKEESKVDPMKPKQAVQLKSRAARDEPGGGAQTAGQRRAAAELERIKRDQSRTADEDNTLAPPPSSSRASASPRGSVSAASDHVPQNMDELLEDLMKMKAVLRQHERRIRMLEEEIADRNMSNAYSF,not soluble
3,MGSDKIHHHHHHMSRFTYAYMMMTRLETLKNNLQAAFGQDLALTESLGELTLEVAAEQWFSACTKLRTDPALRFESCIDLCGVDYLTWGNGTQPEEKTGPVTHGRYAVVVHLLSIEHNWRLRVRTWAPDDEFPMVSSLLECWPGVNWFEREAFDLYGIVFEGHPDLRRILTDYGFIGHPFRKDFPLSGTVEMRYDPEQKRVIYQPVTIDPREITPRVVREGSYGMGR,not soluble
4,MHHHHHHSSGVDLGTENLYFQSNAMTNIQKRFYKGRVALNVLANNIENAKDIFEAAEGYVVVGVLSKDYPTVEEAVTAMKAYGKEIDDAVSIGLGAGDNRQAAVVAEIAKHYPGSHINQVFPSVGATRANLGEKDSWINSLVSPTGKVGYVNISTGPISAAGEEKAIVPIKTAIALVRDMGGNSLKYFPMKGLAHEEEYRAVAKACAEEGFALEPTGGIDKENFETIVRIALEANVEQVIPHVYSSIIDKETGNTKVEAVRELLAVVKKLVDQYA,soluble
5,ELNHRVKNTLATVQAIASLTVNSSTSLDSFRKSFDARLFALSQARAEWMSTELADLLAQLQDVNGGQHRITFTGDP,not soluble
6,MNTPFDFPEGAGRLVYVRPVPVAELPEDVQSMARGLDHIYALHGADGERLALVRDRHLAFVLARQNDLAPVNVH,not soluble
7,MGSDKIHHHHHHMPYINVRGVEHYYEWVKQPSGDLVKPVMVFIHGWAGSARYWISTANALSDQFDCLLYDLRGFGRSQGKPTVAQASESVVGADSTQEKSQAIQELTYEIEEYAEDLVVLLDELKLQRVYVNAHSMGASVATMFFNRYPQRVERGILTCSGIFEYDEKAFAAFHKFGGYVVKFRPKWLGKIPLVDRMFMARFLHRPIPKSERKAFLEDFLVADYDTALGTIFTSVSKAQAEVMPQEFAKLQVPTLLVAGEYDQIIPAKMGRQAASLNDKVEFVLIPNTAHFPMLEDAPTYLRRVREFLQVATPELQTS,not soluble
8,MKGFCYRCGHEGELLDGLCKICYTHMNPLIEVDNEVHVEVCHMCGSYKRKLWQDPQKRETYEIMEEIAYFGVKDNLKKANKSIDVEIMPQEPRQLPGGKRSRVEIPTVVFAKGRLVGEDNDREEERHITVYLDMVQCPRCSRCMSNYYEGTLQVRAMNRFLNDKERIELDDFVRDEAGKRLNKDRMAFISKYIPQKEGLDYQMGSMGAIRNIASAIKAKYGGKSIETAKLVGVDKDTGKDMYRITVAVRIPEFKLGDILEHKEKIYVVSSLNESRVYMEPVELGDKIALVWNEIDKSAKLIKKGEDCETATVISITPDTITAMDDSNYEIYEYNNTIENVKEGNKIRIFKNEEINRILEIIELEHHHHHH,soluble
9,KLGAPVKKAILEALSERDQTADICKDSKGNIEPDTQLRDTELVAFPDHLTLPLPVNYDKEPDLSKLLPLVKAHCEAYLKAEVLPHVADAWIDYSKTKVGYEIPINRHFYIYEPPRPLEEIKAEIVQLEQEIMQMLGGLSA,not soluble
10,MPSYKLTYFAVRGLAEPARLLFHLAGVPFEDERLTFGDGSWEKLKDKTPMGQMPVLNVDGFEIPQSAAITRYLARKFGFAGKTPEEEAWVDAVVDQFKDFFGEFRKLIIAQRAGKSVEEIEKLTKEVINPAVSSFFKILNGLLEKSKSGYLIGDSITFADLFIAEDMQSLKNFGFLNATEQPKIAAHLEKVYSHPKLKSYIASRPVTEI,not soluble
11,MGSDKIHHHHHHMIILVGGEKGGSGKSCLAQNIAVFLTVECGASVIMVDCDPQRTTSDWIQARNNNGTLASINCVQLYGKIRNDLLSLEQHYDYVIVDCGGQDNLALRATMSVASHVLMPLRPKRRDLKTVSHMDDIVATCMMINPKMRASFVITQCPSLPNQANRIFEAKEVCKTYDINVLDAITYSRNIYDDSEESGLSVMETQPKGKAAEEIRSIACEMLQASSATEIRNRLAEKQMDKLRGNYGSGRSQEKLYAV,not soluble
12,MGSDKIHHHHHHMLIYHYTTVDTFLKILDSKAIWASDLSKMNDPQEFTIGIELIKKFYQKKFPDLLHWFENDRFVGLDNEQLLLGCSFSENPDDLSQWRAYGDDGKGVVIGINRRILSASNTLTIPAFYKKDERTASFVHFHKVIYDKQEFENSVKELLDNIGDFINDTVESFKLSIGLSRLACSFKSDFYKTEQEIRAILEHSKRSDIYLDESLKKHKLFDVKFRLSQFGLVPYCKVNLSNADASSIQTVKLGPKCNISKKDLEFMLLATGNKDILVSTSAGQYR,not soluble
13,MSLATKDPTAVERANLLNMAKLSIKGLIESALSFGRTLDSDYPPLQQFFVVMEHCLKHGLKGRKSFLSYNKTIWGPLELVEKLYPEAEEIGASVRDLPGLKTPLGRARAWLRLALMQKKMADYLRCLIIQRELLSEFYEYHALMMEEEGAVIVGLLVGLNVIDANLCVKGEDLDSQVGVIDFSMYLKNEEGHHHHHH,soluble
14,MPTLSSNLKHLRLLLGRSQGEFAEQLGIAQSTLSSVERENRPPSTKLINTARFQTGVSAEYFEASIHFYAAPDLLFRSAREGRANADKIAAAFSIAEHYLRERYPDVTSDLPTIPIADLEGELSLRMLEEFASQTRDHFGIDQDSMIPNLTTVLNNHGILVTSLPDYVVEGTNFDGVSTPTDSTLRIIALNQQRSGDRYRFSLAHELAHLILHANTLRSDKSQMEKEANIFAASFLMPRALLTPVITPELTLKDYAELKAQWGYSIQAIVRRAHELELIDYKRYRSLRMQIAGRGWNINEPVDVLLENVYIDPIDLLSNNIKKHQSTNEGLATVTSLHKQ,not soluble
15,MAHHHHHHMQGTGSAKSFLEKLKSGRTTSAAIDNNAPPDGDGVILRRVERQYASEPLSALGLKLTEDAEVLSTEVGSPAAKSNIPLHYMIIAVNNQFVGSRADFEDIAAQLLTLVIKLQSTAAMSELLANILNEEEKNFNENGDSCIDVNELLRTTPRYGFLSAEHPMFLRWNQRLQTQREARQLIRQATREAEEQQAKEALEALRRVADAEDEIQQQQAQQERQHQQMLRQGPETVNPSAPEAGARPGGEVLLKQVQDESTFGESNVNNEGFEESPEEASPEELLKLIGAEPVETEVVQHVDADEPTEVRFFINPTEEYALSNGTRVTISVKKRSGPIPKPPPGKPPKGIEKADDKQAQ,not soluble
